Where no end group is shown, it is not given here. The star is where a group is joined. βGlcNAc = CC(=O)N[C@@H]1[C@@H](O)[C@H](O)[C@@H](CO)O[C@H]1*

Series [1] concerns the target T1, TtOGA (Thermobaculum terrenum, UniProt D1CDN2).
T1 construct: gene Tter_0116; full-length, N-terminal GST fusion from E. coli BL21, GST cut off with PreScission protease (pGEX-6P-1)
The series can be described thus: fluorogenic 4MU-GlcNAc hydrolysis; Ki from IC50 by Cheng-Prusoff. The following applies: 4MU-GlcNAc 90 uM (= Km); 4 pM enzyme; 1 min preincubation. The class given is biochemical.

The target of series [2] is T2, TtOGT (Thermobaculum terrenum, UniProt D1CIY5, K341M).
T2 construct: gene Tter_2822; full-length, N-terminal GST fusion from E. coli BL21, GST cut off with PreScission protease (pGEX-6P-1)
T2 sequence (D1CIY5 entry or part of it K341M): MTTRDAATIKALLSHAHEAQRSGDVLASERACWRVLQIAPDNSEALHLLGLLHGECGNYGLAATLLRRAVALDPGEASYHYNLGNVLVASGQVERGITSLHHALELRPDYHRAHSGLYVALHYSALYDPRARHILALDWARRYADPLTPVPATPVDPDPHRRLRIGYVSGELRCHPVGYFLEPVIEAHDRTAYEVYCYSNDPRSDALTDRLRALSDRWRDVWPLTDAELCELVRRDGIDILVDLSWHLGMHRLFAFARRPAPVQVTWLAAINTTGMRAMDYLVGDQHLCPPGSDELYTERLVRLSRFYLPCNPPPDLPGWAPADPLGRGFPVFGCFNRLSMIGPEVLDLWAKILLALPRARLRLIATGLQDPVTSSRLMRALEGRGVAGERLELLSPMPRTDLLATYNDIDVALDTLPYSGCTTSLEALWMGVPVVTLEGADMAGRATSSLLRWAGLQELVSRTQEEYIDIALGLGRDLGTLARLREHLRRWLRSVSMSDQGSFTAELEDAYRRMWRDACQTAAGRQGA
The series can be described thus: X-ray crystal structure of complex, […] A. Format: binding. The conditions noted are these: co-crystallized with 10 mM UDP; active site; mutant stated in the crystallization methods; PDB code assigned by reader.

Substrate in series [3]: CC(=O)N[C@H]1[C@H](Oc2ccc3c(C)cc(=O)oc3c2)O[C@H](CO)[C@@H](O)[C@@H]1O
Put plainly: fluorescence of released 4-methylumbelliferone, Michaelis-Menten fit. The following applies: TBS, 0.1 mg/ml BSA, 2% DMSO; 0.2 nM enzyme. Format: biochemical, Thermobaculum terrenum.

In series [4] the target is T3, TtOGA D120N (Thermobaculum terrenum O-GlcNAcase orthologue, product of gene Tter_0116, catalytic acid mutant) (Thermobaculum terrenum strain YNP1, UniProt D1CDN2 1-474, D120N).
T3 construct: O-GlcNAcase (GH84) orthologue TtOGA of Thermobaculum terrenum YNP1, gene Tter_0116, full length, cloned into pGEX-6P-1; GST removed with PreScission protease; also called D120N mutant of TtOGA; Ttoga product; source: E. coli BL21, purified (GSH-Sepharose, PreScission cleavage, Superdex 75); not shown: GST, N-terminal, cleaved
T3 sequence (looked up): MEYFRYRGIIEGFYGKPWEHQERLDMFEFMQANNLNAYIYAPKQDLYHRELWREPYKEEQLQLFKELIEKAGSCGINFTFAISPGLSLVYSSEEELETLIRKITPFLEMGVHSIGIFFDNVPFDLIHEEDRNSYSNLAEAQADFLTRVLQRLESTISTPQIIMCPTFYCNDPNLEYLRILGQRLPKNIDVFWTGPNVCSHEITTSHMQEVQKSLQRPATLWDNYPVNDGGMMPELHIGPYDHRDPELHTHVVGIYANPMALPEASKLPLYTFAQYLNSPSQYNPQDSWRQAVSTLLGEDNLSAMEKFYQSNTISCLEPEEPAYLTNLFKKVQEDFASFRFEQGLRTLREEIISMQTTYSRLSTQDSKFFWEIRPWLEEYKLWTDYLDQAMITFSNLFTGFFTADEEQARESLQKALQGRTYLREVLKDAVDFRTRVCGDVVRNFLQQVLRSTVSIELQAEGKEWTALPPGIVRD
Put plainly: crystal structure; co-crystallised: 40 mg/ml TtOGA D120N with 7.2 mM hTab1-O-GlcNAc peptide in 50 mM HEPES pH 7.5, 250 mM NaCl, 0.5 mM TCEP; sitting drops, 38% PEG 4000, 400 mM sodium acetate, 0.1 M Tris-HCl pH 8.5, 22 °C; 2.06 Å. The following applies: both partners purified.

As usually defined, the Ki is a dissociation constant, usually derived from enzyme kinetics or from competition with a known ligand. On to `C=CC=CC(=O)N[C@H]1c2nc(CCc3ccccc3)cn2[C@H](CO)[C@@H](O)[C@@H]1O` [GlcNAcstatin G], for which, in series [1], affinity was put at a Ki of 18 nM. For `O=c1ccn([C@@H]2O[C@H](COP(=O)(O)OP(=O)(O)O)[C@@H](O)[C@H]2O)c(=O)[nH]1` [UDP], the “X-ray crystal structure of complex, 2.80 A” value in series [2] was “TtOGT was co-crystallized with the product of O-GlcNAc transfer, UDP”.

B1: TtOGA (Thermobaculum terrenum ATCC BAA-798) (protein)
chain: MEYFRYRGIIEGFYGKPWEHQERLDMFEFMQANNLNAYIYAPKQDLYHRELWREPYKEEQLQLFKELIEKAGSCGINFTFAISPGLSLVYSSEEELETLIRKITPFLEMGVHSIGIFFDDVPFDLIHEEDRNSYSNLAEAQADFLTRVLQRLESTISTPQIIMCPTFYCNDPNLEYLRILGQRLPKNIDVFWTGPNVCSHEITTSHMQEVQKSLQRPATLWDNYPVNDGGMMPELHIGPYDHRDPELHTHVVGIYANPMALPEASKLPLYTFAQYLNSPSQYNPQDSWRQAVSTLLGEDNLSAMEKFYQSNTISCLEPEEPAYLTNLFKKVQEDFASFRFEQGLRTLREEIISMQTTYSRLSTQDSKFFWEIRPWLEEYKLWTDYLDQAMITFSNLFTGFFTADEEQARESLQKALQGRTYLREVLKDAVDFRTRVCGDVVRNFLQQVLRSTVSIELQAEGKEWTALPPGIVRD
notes: full-length, N-terminal GST fusion from E. coli BL21, GST cut off with PreScission protease (pGEX-6P-1)
Usually Km stands for the substrate concentration at which the rate is half of its maximum. Broadly, the kcat is the maximal rate divided by the concentration of active sites. Consider B1, for which, in series [3], the Michaelis-Menten constant (Km) amounted to 90 µM and the kcat was determined as 180 s⁻¹.

B2: hTab1-O-GlcNAc peptide (392-VPYgSSAQ-398, gS is GlcNAcylated serine) (peptide)
peptide: VPYS(βGlcNAc)SAQ
notes: probably synthetic; also called hTab1 glycopeptide; glycopeptide derived from the validated hTab1 glycosylation site
For the molecule B2, in series [4], the binding result was “binds”.

Values taken from paper PMC4683255, “Evidence for a Functional O-Linked N-Acetylglucosamine (O-GlcNAc) System in the Thermophilic Bacterium Thermobaculum terrenum*” (The Journal of Biological Chemistry, 2015).
